Results on one protein are retold here after article PMC4899250 (Journal of neurochemistry, 2016).

The data set deals with the molecule itself. In words: native MS.

B1: tau^106-144 (peptide)
peptide: Ac-AGIGDTPSLEDEAAGHVTQARMVSKSKDGTGSDDKKAKG-NH2
Turning to B1, the “stoichiometry N” value came to 2.

The stoichiometry N is a count of units in the complex or per binding partner.
